Measurements taken from PMC10613257, “Cryo-EM structure of human PAPP-A2 and mechanism of substrate recognition” (Communications Chemistry, 2023).

Molecular target: the molecule itself
Assay: SEC; Superose 6 Increase 10/300 in 1X PBS

B1: Pregnancy-Associated Plasma Protein A (PAPP-A), wild type (enzyme, UniProt Q13219 82-1627, looked up)
chain: EARGATEEPSPPSRALYFSGRGEQLRLRADLELPRDAFTLQVWLRAEGGQRSPAVITGLYDKCSYISRDRGWVVGIHTISDQDNKDPRYFFSLKTDRARQVTTINAHRSYLPGQWVYLAATYDGQFMKLYVNGAQVATSGEQVGGIFSPLTQKCKVLMLGGSALNHNYRGYIEHFSLWKVARTQREILSDMETHGAHTALPQLLLQENWDNVKHAWSPMKDGSSPKVEFSNAHGFLLDTSLEPPLCGQTLCDNTEVIASYNQLSSFRQPKVVRYRVVNLYEDDHKNPTVTREQVDFQHHQLAEAFKQYNISWELDVLEVSNSSLRRRLILANCDISKIGDENCDPECNHTLTGHDGGDCRHLRHPAFVKKQHNGVCDMDCNYERFNFDGGECCDPEITNVTQTCFDPDSPHRAYLDVNELKNILKLDGSTHLNIFFAKSSEEELAGVATWPWDKEALMHLGGIVLNPSFYGMPGHTHTMIHEIGHSLGLYHVFRGISEIQSCSDPCMETEPSFETGDLCNDTNPAPKHKSCGDPGPGNDTCGFHSFFNTPYNNFMSYADDDCTDSFTPNQVARMHCYLDLVYQGWQPSRKPAPVALAPQVLGHTTDSVTLEWFPPIDGHFFERELGSACHLCLEGRILVQYASNASSPMPCSPSGHWSPREAEGHPDVEQPCKSSVRTWSPNSAVNPHTVPPACPEPQGCYLELEFLYPLVPESLTIWVTFVSTDWDSSGAVNDIKLLAVSGKNISLGPQNVFCDVPLTIRLWDVGEEVYGIQIYTLDEHLEIDAAMLTSTADTPLCLQCKPLKYKVVRDPPLQMDVASILHLNRKFVDMDLNLGSVYQYWVITISGTEESEPSPAVTYIHGSGYCGDGIIQKDQGEQCDDMNKINGDGCSLFCRQEVSFNCIDEPSRCYFHDGDGVCEEFEQKTSIKDCGVYTPQGFLDQWASNASVSHQDQQCPGWVIIGQPAASQVCRTKVIDLSEGISQHAWYPCTISYPYSQLAQTTFWLRAYFSQPMVAAAVIVHLVTDGTYYGDQKQETISVQLLDTKDQSHDLGLHVLSCRNNPLIIPVVHDLSQPFYHSQAVRVSFSSPLVAISGVALRSFDNFDPVTLSSCQRGETYSPAEQSCVHFACEKTDCPELAVENASLNCSSSDRYHGAQCTVSCRTGYVLQIRRDDELIKSQTGPSVTVTCTEGKWNKQVACEPVDCSIPDHHQVYAASFSCPEGTTFGSQCSFQCRHPAQLKGNNSLLTCMEDGLWSFPEALCELMCLAPPPVPNADLQTARCRENKHKVGSFCKYKCKPGYHVPGSSRKSKKRAFKTQCTQDGSWQEGACVPVTCDPPPPKFHGLYQCTNGFQFNSECRIKCEDSDASQGLGSNVIHCRKDGTWNGSFHVCQEMQGQCSVPNELNSNLKLQCPDGYAIGSECATSCLDHNSESIILPMNVTVRDIPHWLNPTRVERVVCTAGLKWYPHPALIHCVKGCEPFMGDNYCDAINNRAFCNYDGGDCCTSTVKTKKVTPFPMSCDLQGDCACRDPQAQEHSRKDLRGYSHG
notes: PAPP-A, mature form of 1547 amino acids after processing of the pro-peptide. numbers count on: the mature protein; also called FL PAPP-A; dimeric PAPP-A; source: Expi293F, secreted into the culture medium, purified (anti-FLAG, Superose 6 SEC)
  stoichiometry N: 2
